“Also recorded” adds a separate entry of the source.
What was measured:
primary beige adipocytes = primary beige adipocytes treated with IL-27 in vitro, immunoblot analysis; type: cell-based, mouse; details: rmIL-27 100 ng/ml
Procedure: A whole cell lysate or tissue lysate was extracted using an RIPA lysis buffer (Beyotime, China) supplemented with a complete protease inhibitor (Roche) and a phosphatase inhibitor Cocktail 2 (P5726, Sigma), and a supernatant was used for subsequent analysis. Proteins were diluted in a Loading dye (BL502A, Bio-sharp), heated at 95° C. for 10 min, and separated on 4-12% polyacrylamide gel. The proteins were transferred to polyvinylidene fluoride membranes and western blot experiments were performed with the commercial antibodies and methods-reagents mentioned in the drawing.
Inguinal subcutaneous adipose tissue was minced and digested at 37° C. for 45 min in PBS containing collagenase II (1 mg/ml), and a tissue suspension was filtered by a 100 μm cell filter and centrifuged at 600 g for 5 min, such that a stromal vascular fraction (SVF) was granulated. After granulation, the product was further filtered by a 40 μm cell filter and placed on a collagen-coated plate. After overnight culturing, a supernatant containing non-adherent cells was removed. Precursor adipocytes were grown in DMEM containing 10% FBS and insulin (5 μg/ml) for fusion. The product was treated for 2 days with dexamethasone (1 μM), 3-isobutyl-1-methylxanthine (IBMX, 0.5 mM), insulin (5 μg/ml), indomethacin (125 nM) and rosiglitazone (1 μM) to induce differentiation of the fused cells, and then independently treated for another 5 days with insulin (5 μg/ml) and triiodothyronine (T3, 1 nM). On day 7, the cells were pretreated overnight with and without IL-27 (100 ng/ml) and then treated with isoproterenol (10 μM) or forskolin (10 μM) for 4-6 hours. IL-27 (100 ng/ml) was added for treatment for 0-120 min on day 7 for protein phosphorylation analysis, or for 12-24 h for protein expression level detection. For signal inhibition experiments, either the STAT3 inhibitor (C188-9, 10 μM) or the p38 MAPK inhibitor (SB203580, 10 μM) was added to a medium 0.5 h prior to and during IL-27 treatment.
FIG. 3A-FIG. 3M show promotion of heat generation by IL-27. As for FIG. 3A: primary beige adipocytes were generated in vitro from an SVF of WT SCW and then treated with rmIL-27 (100 ng/ml) or PBS for 24 hours. Cells were lysed and a protein extract was used for immunoblot analysis. As for FIG. 3B: immunoblot analysis of phosphorylation of the protein in the WT primary beige adipocyte extract treated with the rmIL-27 (100 ng/ml) for a specified time was shown. As for FIG. 3C: the primary beige adipocytes derived from WT SCW were generated in vitro. The STAT3 inhibitor (C188-9, 10 μM) or p38 MAPK inhibitor (SB203580, 10 μM) was added to a medium 0.5 hours prior to culturing and in duration of rmIL-27 treatment (100 ng/ml for 12 hours). Cell lysis and the representative immunoblot of the protein extract were shown. As for FIG. 3D-FIG. 3J: WT mice were fed with HFD for 32 weeks and then injected intraperitoneally. Every other day, rmIL-27 (100 μg/kg) or PBS was injected for 15 days. As for FIG. 3D: body weight was recorded at specified time points (n=8). As for FIG. 3E: after rmIL-27 treatment for 15 days, adipose tissue was collected and weighed (n=6-8) for a glucose tolerance test (FIG. 3F, n=8) and an insulin tolerance test (FIG. 3G, n=8). As for FIG. 3H: the mice were fasted overnight and then injected intraperitoneally with 0.75 U/kg insulin (15 min). Immunoblot analysis of pAKT (pSer473) in epididymal fat was performed. As for FIG. 3I: after rmIL-27 treatment for 15 days, oil-red O liver tissue staining was performed, with the scale=50 μm. As for FIG. 3J-FIG. 3M: UCP1-KO mice were fed with HFD for 20 weeks and then injected intraperitoneally with rmIL-27 (100 μg/kg) or PBS every other day for 15 days. As for FIG. 3J: body weight was recorded at specified time points (n=6). As for FIG. 3K: adipose tissue and livers were collected and weighed after rmIL-27 treatment for 15 days (n=6), and GTT (FIG. 3L, n=6) and ITT (FIG. 3M, n=4) tests were performed after rmIL-27 treatment for 15 days. […]

EBI-3 KO mice = experiment: cold stimulation experiment at 4° C. after rmIL-27 treatment of EBI-3 KO mice; type: in vivo, mouse; details: rmIL-27 100 μg/kg intraperitoneally for 7 consecutive days, then cold stimulation at 4° C.
Procedure: Cold stimulation experiments were performed in a temperature controlled cold room. Mice were placed individually in individual cages (without bedding) at 4° C. The mice had free access to food and water. Rectal core body temperatures were recorded every 2 hours using a digital thermometer and a rectal thermocouple probe (TH-212, HICHANCE, China). If the core body temperature fell below 20° C., the individual mice were euthanized and scored as events for survival analysis.
8-week-old WT mice were fed with HFD for 32 weeks and randomly divided into 2 groups. The mice were injected intraperitoneally with rmIL-27 (100 μg/kg) or PBS for 15 consecutive days, and then, metabolic analysis was performed. 12-month-old EBI-3 KO mice were randomly divided into 2 groups, and injected intraperitoneally with rmIL-27 (100 μg/kg) or PBS for 7 consecutive days. The mice were then subjected to a cold stimulation experiment at 4° C.
As for FIG. 7A-FIG. 7C: 8-week-old Il27ra^f/f and Ucp1-Cre Il27ra^f/f mice were fed with HFD for 10 weeks. After HFD treatment for 10 weeks, GTT (FIG. 7A) and ITT (FIG. 7B) (n=5-6) tests were performed, and adipose tissue and livers were collected and weighed (FIG. 7C, n=5-6). […] Expression of UCP1 was detected by immunoblot. […] Expression of UCP1 or PPARα was analyzed by an immunoblot. […] A band density was quantified and normalized with ImageJ. […]

[1] = 0-120 min, immunoblot (FIG. 3B)

B1: IL-27: Recombinant mouse IL-27 (EBI-3/p28 heterodimer cytokine), purchased from Biolegend (577408) (protein, UniProt O35228 19-228; Q8K3I6 29-234, looked up)
Interleukin-27 subunit beta: YTETALVALSQPRVQCHASRYPVAVDCSWTPLQAPNSTRSTSFIATYRLGVATQQQSQPCLQRSPQASRCTIPDVHLFSTVPYMLNVTAVHPGGASSSLLAFVAERIIKPDPPEGVRLRTAGQRLQVLWHPPASWPFPDIFSLKYRLRYRRRGASHFRQVGPIEATTFTLRNSKPHAKYCIQVSAQDLTDYGKPSDWSLPGQVESAPHKP
Interleukin-27 subunit alpha: FPTDPLSLQELRREFTVSLYLARKLLSEVQGYVHSFAESRLPGVNLDLLPLGYHLPNVSLTFQAWHHLSDSERLCFLATTLRPFPAMLGGLGTQGTWTSSEREQLWAMRLDLRDLHRHLRFQVLAAGFKCSKEEEDKEEEEEEEEEEKKLPLGALGGPNQVSSQVSWPQLLYTYQLLHSLELVLSRAVRDLLLLSLPRRPGSAWDS
- Phosphorylation of p38 MAPK (primary beige adipocytes; [1]): significantly increased
- pSTAT3 (primary beige adipocytes; [1]): only transiently induced and rapidly regressed
- expression of UCP1 (primary beige adipocytes; 24 hours, immunoblot (FIG. 3A)): significantly increased
- expression of peroxisome proliferator-activated receptor α (PPARα) (primary beige adipocytes; 24 hours, immunoblot (FIG. 3A)): up-regulated
- expression of peroxisome proliferator-activated receptor γ co-activator 1α (PGC-1α) (primary beige adipocytes; 24 hours, immunoblot (FIG. 3A)): up-regulated
- activation of ATF2 (primary beige adipocytes; immunoblot (FIG. 3A-3C)): enhanced
- UCP1-mediated heat generation (EBI-3 KO mice): improved
- body temperature / hypothermia in cold stimulation (EBI-3 KO mice; rectal temperature): avoided low temperatures; also recorded: reverse hypothermia

Source: US20230391843A1, “COMPOSITION AND METHOD FOR CONTROLLING HEAT GENERATION WITHIN ORGANISM, AND USE” (GUANGDONG JIANTEBO BIOTECHNOLOGY CO., LTD., priority 2021, published 2023)
